Reference: patent US6111089, “Trophinin, trophinin-assisting proteins and methods to inhibit implantation” (The Burnham Institute, dated 2000)

B1: human trophinin (other)
chain: MDIDCLTREELGDDSQAWSRFSFEIEARAQENADASTNVNFSRGASTRAGFSDRASISFNGAPSSSGGFSGGPGITFGVAPSTSASFSNTASISFGGTLSTSSSFSSAASISFGCAHSTSTSFSSEASISFGGMPCTSASFSGGVSSSFSGPLSTSATFSGGASSGFGGTLSTTAGFSGVLSTSTSFGSAPTTSTVFSSALSTSTGFGGILSTSVCFGGSPSSSGSFGGTLSTSICFGGSPCTSTGFGGTLSTSVSFGGSSSTSANFGGTLSTSICFDGSPSTGAGFGGALNTSASFGSVLNTSTGFGGAMSTSADFGGTLSTSVCFGGSPGTSVSFGSALNTNAGYGGAVSTNTDFGGTLSTSVCFGGSPSTSAGFGGALNTNASFGCAVSTSASFSGAVSTSACFSGAPITNPGFGGAFSTSAGFGGALSTAADFGGTPSNSIGFGAAPSTSVSFGGAHGTSLCFGGAPSTSLCFGSASNTNLCFGGPPSTSACFSGATSPSFCDGPSTSTGFSFGNGLSTNAGFGGGLNTSAGFGGGLGTSAGFSGGLSTSSGFDGGLGTSAGFGGGPGTSTGFGGGLGTSAGFSGGLGTSAGFGGGLVTSDGFGGGLGTNASFGSTLGTSAGFSGGLSTSDGFGSRPNASFDRGLSTIIGFGSGSNTSTGFTGEPSTSTGFSSGPSSIVGFSGGPSTGVGFCSGPSTSGFSGGPSTGAGFGGGPNTGAGFGGGPSTSAGFGSGAASLGACGFSYG

How the values were obtained:
[1] = molecular target: biotinylated GST (Schistosoma japonicum (Blood fluke), UniProt P08515 = GST, labeled with biotin succinamide); assay: staining of unpermeabilized HT-H, SNG-M and trophinin/tastin-transfected COS-1 cells, avidin-FITC
Method: (§1) To identify hydrophilic extracellular domains of human trophinin that mediate cell adhesion, individual domains were expressed and evaluated for specific binding to trophinin expressing cells. The trophinin extracellular domain fusion proteins GST551, GST552 and GST553, the GST-N-terminal trophinin domain (residue 1 to 66) and GST were labeled with biotin succinamide (Sigma). SNG-M, HT-H and COS-1 cells transfected with a mixture of human trophinin and tastin cDNA were grown on coverslips and processed for cell staining with the biotinylated proteins essentially as was described for the antibodies to the external domains of trophinin, except that avidin-FITC (Cappel) was used in place of a FITC-secondary antibody.

[2] = molecular target: B1; assay: as above
Method: as §1

Row | Binder | binding result [1] | binding result [2]
1 | B1 | no binding | –
2 | biotinylated GST-N-terminal trophinin (other, also: labeled with biotin succinamide (site not given here)) {GST}-MDIDCLTREELGDDSQAWSRFSFEIEARAQENADASTNVNFSRGASTRAGFSDRASISFNGAPSSS | – | no binding
